Laboratory results taken from patent publication US10006010B2, “Cytochrome P450 fusion protein” (The University of York, priority 2014, dated 2018).

Assays:
[1] = Enzyme assay on soluble/microsomal preparations of S. cerevisiae expressing STORR fusion or modules, substrate 1,2-dehydroreticuline; assay type: biochemical; conditions: soluble or microsomal preparations from S. cerevisiae; 100 μM substrate, 1 mM NADPH, 37° C. 3 hours
Text: (§1) Genscript created synthetic DNA sequences were created for PsCPR [Genbank accession AAC05021, (Rosco A. et al. (1997) Arch. Biochem. Biophys. 348, 369-77), the full length STORR (CYP82Y2-Oxidoreductatse (“Oxired”)) protein, the N-terminal CYP82Y2 module and C-terminal oxidoreductase (Oxidoreductase) module, that were codon optimised for expression is Saccharomyces cerevisiae. The codon-optimized sequences are provided with the SEQ ID NO 30-33.
(§2) Expression vector pESC-TRP::soloxired was created by digesting the corresponding PCR product with NotI and PacI and inserting this behind the GAL10 promoter of pESC-TRP. pESC-TRP::CPR was created by digesting the corresponding PCR product with BamHI and XhoI and inserting this behind the GAL1 promoter of pESC-TRP. This was then used to created pESC-TRP::CPR::CYP82Y2 and pESC-TRP::CPR::CYP82Y2-Oxidoreductase. These plasmids were then transformed in S. cerevisiae G175 (Sorger D. et al. (2004) J. Biol. Chem. 279, 31190-6) using lithium acetate protocol (Geitz R. D. and Woods R. A. (2002) Methods in Enzymology 350, 87-96). Yeasts were cultivated in Synthetic Defined (SD) medium composed of 2% carbon source, 0.5% ammonium sulfate, 1.7 g L^−1 yeast nitrogen base (without amino acids and ammonium sulfate) and 1.92 g L^−1 or tryptophan drop-out supplement (Sigma-Aldrich, Gillingham, UK). Cultures grown using glucose as a carbon source were used to inoculate 200 ml cultures with raffinose as a carbon source to an OD 600 nm of 0.10 in 1 L conical flasks. […]
(§3) Enzymes assays were set up in 250 μL volumes containing final concentrations of 50 mM Bis-tris propane buffer, 1 mM NADPH and 100 μM of substrate. […] The extract was then dissolved in 100 μL of 50:50:0.1 hexane/ethanol/diethylamine and analysed by the chiral HPLC method to determine the relative amounts of (R)- and (S)-reticuline.
(§4) Poppy capsules were processed and analysed by UPLC-MS and R-scripts as previously described (“the standard method”; (Winzer T. et al. (2012) Science 336, 1704-8)). […]

[2] = Enzyme assay on microsomal preparations of S. cerevisiae expressing STORR fusion or modules, substrate (S)-reticuline; assay type: biochemical
Text: as §1, §2, §3, §4

Row | Molecule | conversion efficiency of 1,2-dehydroreticuline to (R)-reticuline [1] | accumulation of 1,2-dehydroreticuline during conversion of (S)- to (R)-reticuline ([2]; microsomal fractions harboring the fusion protein) | added (S)-reticuline converted to (R)-reticuline ([2]; microsomal preparations from S. cerevisiae, with CPR, 100 μM substrate, 37° C. 3 hours) | conversion of (S)-reticuline to 1,2-dehydroreticuline ([2]; microsomal preparations from S. cerevisiae, with CPR redox partner, 100 μM substrate, 37° C. 3 hours) [%]
1 | STORR fusion: Full length CYP82Y2-oxidoreductase fusion protein (SEQ ID NO 1; codon optimized SEQ ID NO 31) expressed with PsCPR in S. cerevisiae (protein, listed as Papaver somniferum, co-expressed with PsCPR) MELQYISYFQPTSSVVALLLALVSILSSVVVLRKTFLNNYSSSPASSTKTAVLSHQRQQSCALPISGLLHIFMNKNGLIHVTLGNMADKYGPIFSFPTGSHRTLVVSSWEMVKECFTGNNDTAFSNRPIPLAFKTIFYACGGIDSYGLSSVPYGKYWRELRKVCVHNLLSNQQLLKFRHLIISQVDTSFNKLYELCKNSEDNHGNYTTTTTTAAGMVRIDDWLAELSFNVIGRIVCGFQSGPKTGAPSRVEQFKEAINEASYFMSTSPVSDNVPMLGWIDQLTGLTRNMKHCGKKLDLVVESIINDHRQKRRFSRTKGGDEKDDEQDDFIDICLSIMEQPQLPGNNNPSQIPIKSIVLDMIGGGTDTTKLTTIWTLSLLLNNPHVLDKAKQEVDAHFRTKRRSTNDAAAAVVDFDDIRNLVYIQAIIKESMRLYPASPVVERLSGEDCVVGGFHVPAGTRLWANVWKMQRDPKVWDDPLVFRPDRFLSDEQKMVDVRGQNYELLPFGAGRRVCPGVSFSLDLMQLVLTRLILEFEMKSPSGKVDMTATPGLMSYKVIPLDILLTHRRIKPCVQSAASERDMESSGVPVITLGSGKVMPVLGMGTFEKVGKGSERERLAILKAIEVGYRYFDTAAAYETEEVLGEAIAEALQLGLVKSRDELFISSMLWCTDAHADRVLLALQNSLRNLKLEYVDLYMLPFPASLKPGKITMDIPEEDICRMDYRSVWAAMEECQNLGFTKSIGVSNFSCKKLQELMATANIPPAVNQVEMSPAFQQKKLREYCNANNILVSAISVLGSNGTPWGSNAVLGSEVLKKIAMAKGKSVAQVSMRWVYEQGASLVVKSFSEERLRENLNIFDWELTKEDHEKIGEIPQCRILSAYFLVSPNGPFKSQEELWDDEA | 100% | no detectable accumulation | about 20% | –
2 | CYP82Y2 module: N-terminal CYP82Y2 module of STORR (codon optimized SEQ ID NO 32) expressed with opium poppy CPR redox partner in S. cerevisiae (protein, co-expressed with poppy CPR in yeast; Yeast codon optimized CYP82Y2) MELQYISYFQPTSSVVALLLALVSILSSVVVLRKTFLNNYSSSPASSTKTAVLSHQRQQSCALPISGLLHIFMNKNGLIHVTLGNMADKYGPIFSFPTGSHRTLVVSSWEMVKECFTGNNDTAFSNRPIPLAFKTIFYACGGIDSYGLSSVPYGKYWRELRKVCVHNLLSNQQLLKFRHLIISQVDTSFNKLYELCKNSEDNHGNYTTTTTTAAGMVRIDDWLAELSFNVIGRIVCGFQSGPKTGAPSRVEQFKEAINEASYFMSTSPVSDNVPMLGWIDQLTGLTRNMKHCGKKLDLVVESIINDHRQKRRFSRTKGGDEKDDEQDDFIDICLSIMEQPQLPGNNNPSQIPIKSIVLDMIGGGTDTTKLTTIWTLSLLLNNPHVLDKAKQEVDAHFRTKRRSTNDAAAAVVDFDDIRNLVYIQAIIKESMRLYPASPVVERLSGEDCVVGGFHVPAGTRLWANVWKMQRDPKVWDDPLVFRPDRFLSDEQKMVDVRGQNYELLPFGAGRRVCPGVSFSLDLMQLVLTRLILEFEMKSPSGKVDMTATPGLMSYKVIPLDILLTHRRIKPCVQSAASERD | not | – | – | ~100
